# Reference: US20200164038A1, “MODIFIED NUCLEOSIDE, NUCLEOTIDE, AND NUCLEIC ACID COMPOSITIONS” (ModernaTX, Inc., priority 2011, published 2020)
# Legend:
# IFN-alpha = assay: Cytokine study PBMC, IFN-alpha production ELISA; type: cell-based; details: human PBMC, Lipofectamine 2000
# Protocol: The plates were then incubated at 37 C.
# Each condition was done in duplicate
# Shown in Tables 69 and 70 are the average from 2 separate PBMC donors of the G-CSF and IFN-alpha production over time as measured by specific ELISA.
# [1] = Non-human primate in vivo study, serum G-CSF or EPO by ELISA; design: species or system cynomolgus monkey; details: for Female NHP Serum Concentration / Male NHP Serum Concentration: G-CSF LNP, 0.05 mg/kg IV
# Protocol: (§1) Formulations, listed in Table 31, were characterized by particle size, zeta potential, and encapsulation.
# LNP formulations, shown in Table 31 (above), were administered to non-human primates (NHP) (cynomolgus monkey) (n=2) as a bolus intravenous injection (IV) over approximately 30 seconds using a hypodermic needle, which may be attached to a syringe/abbocath or butterfly if needed. The NHP were administered a single modified mRNA IV dose of 0.05 mg/kg of EPO or G-CSF or 0.005 mg/kg of EPO in a dose volume of 0.5 mL/kg. The NHPs were bled 5-6 days before dosing with the modified mRNA LNP formulations to determine protein expression in the serum and a baseline complete blood count. After administration with the modified mRNA formulation the NHP were bled at 8, 24, 48 and 72 hours to determined protein expression. At 24 and 72 hours after administration the complete blood count of the NHP was also determined. Protein expression of G-CSF and EPO was determined by ELISA. Urine from the NHPs was collected over the course of the entire experiment and analyzed to evaluate clinical safety. Samples were collected from the NHPs after they were administered with G-CSF or EPO modified mRNA formulations to determine protein expression using ELISA. Clinical chemistry, hematology, urinalysis and cytokines of the non-human primates were also analyzed.
# [2] = Non-human primate serum chemistry: alanine transaminase (ALT), aspartate transaminase (AST); type: in vivo, cynomolgus monkey; details: for Aspartate Transaminase (AST): Female NHP; for Alanine Transaminase (ALT): Male NHP
# [3] = LNP formulations in mice, serum G-CSF or EPO by ELISA; type: in vivo; details: mice IV; for time out to which protein expression was detectable: LNP
# Protocol: as §1
# LNP formulations, shown in Table 31 (above), were administered to mice (n=4) intravenously (IV) at a single modified mRNA dose 0.05 mg/kg or 0.005 mg/kg. There was also 3 control groups of mice (n=4) that were untreated. The mice were bled at 2 hours, 8 hours, 24 hours, 48 hours and 72 hours after they were administered with G-CSF or EPO modified mRNA formulations to determine the protein expression. Protein expression of G-CSF and EPO were determined using ELISA.
# neutrophil count = assay: Intravenous administration of lipoplexed G-CSF mRNA, neutrophil count; type: in vivo; details: mice IV, 50 ug RNA in 10% lipoplex at days 0, 2 and 4; day 5
# Protocol: Neutrophils were measured at days 1, 5 and 8. Controls included non-specific mammalian RNA or the formulation buffer alone (F.Buffer). The mice were bled at days 1, 5 and 8 to determine the effect of mRNA-encoded human G-CSF to increase neutrophil count. The dosing regimen is shown in Table 64 as are the resulting neutrophil counts (thousands/uL; K/uL).
# Protocol for HEK293 cells: Human embryonic kidney epithelial (HEK293) cells were seeded on 96-well plates at a density of 30,000 cells per well in 100 ul cell culture medium. 250 ng of modified G-CSF mRNA (SEQ ID NO: 6; polyA tail of approximately 160 nucleotides not shown in sequence; 5′cap, Cap1) formulated with RNAiMAX™ (Invitrogen, Carlsbad, Calif.) was added to a well. The G-CSF was completely modified with 5mC and pseudoU (100% modification), not modified with 5mC and pseudoU (0% modification) or was partially modified with 5mC and pseudoU so the mRNA would contain 75% modification, 50% modification or 25% modification. Control samples (AH 5/2, mCherry (SEQ ID NO: 7; polyA tail of approximately 160 nucleotides not shown in sequence; 5′cap, Cap1; fully modified 5mC and pseudoU) and untreated) were also analyzed. […] The supernatants were harvested after 16 hours and the secreted G-CSF protein was analyzed by ELISA.
molecule,measurement,setting,value
"G-CSF: human G-CSF mRNA, SEQ ID NO: 6, polyA about 160 nt, Cap1, fully modified with 5-methylcytosine and pseudouridine (nucleic acid, listed as Homo sapiens, Cap1; polyA; 5-methylcytosine, pseudouridine) GGGAAAUAAGAGAGAAAAGAAGAGUAAGAAGAAAUAUAAGAGCCACCAUGGCCGGUCCCGCGACCCAAAGCCCCAUGAAACUUAUGGCCCUGCAGUUGCUGCUUUGGCACUCGGCCCUCUGGACAGUCCAAGAAGCGACUCCUCUCGGACCUGCCUCAUCGUUGCCGCAGUCAUUCCUUUUGAAGUGUCUGGAGCAGGUGCGAAAGAUUCAGGGCGAUGGAGCCGCACUCCAAGAGAAGCUCUGCGCGACAUACAAACUUUGCCAUCCCGAGGAGCUCGUACUGCUCGGGCACAGCUUGGGGAUUCCCUGGGCUCCUCUCUCGUCCUGUCCGUCGCAGGCUUUGCAGUUGGCAGGGUGCCUUUCCCAGCUCCACUCCGGUUUGUUCUUGUAUCAGGGACUGCUGCAAGCCCUUGAGGGAAUCUCGCCAGAAUUGGGCCCGACGCUGGACACGUUGCAGCUCGACGUGGCGGAUUUCGCAACAACCAUCUGGCAGCAGAUGGAGGAACUGGGGAUGGCACCCGCGCUGCAGCCCACGCAGGGGGCAAUGCCGGCCUUUGCGUCCGCGUUUCAGCGCAGGGCGGGUGGAGUCCUCGUAGCGAGCCACCUUCAAUCAUUUUUGGAAGUCUCGUACCGGGUGCUGAGACAUCUUGCGCAGCCGUGAAGCGCUGCCUUCUGCGGGGCUUGCCUUCUGGCCAUGCCCUUCUUCUCUCCCUUGCACCUGUACCUCUUGGUCUUUGAAUAAAGCCUGAGUAGGAAG","innate immune recognition, cytokines (IFN-alpha)",IFN-alpha,"induced IFN-alpha, TNF-alpha and IP10"
same,Female NHP Serum Concentration,[1]; 8 hours,3289 pg/mL
same,Male NHP Serum Concentration,[1]; 8 hours,1722 pg/mL
same,Female NHP Serum Concentration,[1]; 48 hours,0 pg/mL
same,Male NHP Serum Concentration,[1]; 48 hours,0 pg/mL
same,Female NHP Serum Concentration,[1]; 72 hours,0 pg/mL
same,Male NHP Serum Concentration,[1]; 72 hours,0 pg/mL
same,Female NHP Serum Concentration,[1]; Pre-bleed,0 pg/mL
same,Male NHP Serum Concentration,[1]; Pre-bleed,0 pg/mL
same,time out to which protein expression was detectable,"[1]; NHP IV, LNP, 0.05 mg/kg",24 h
same,half-life of mRNA,HEK293 cells,8 to 10 h
same,Aspartate Transaminase (AST),"[2]; 0.005 mg/kg, 2 days",34 U/L
same,Aspartate Transaminase (AST),"[2]; 0.005 mg/kg, 4 days",36 U/L
same,Aspartate Transaminase (AST),"[2]; 0.005 mg/kg, 7 days",31 U/L
same,Aspartate Transaminase (AST),"[2]; 0.005 mg/kg, 14 days",20 U/L
same,Aspartate Transaminase (AST),"[2]; 0.005 mg/kg, Pre-dose",54 U/L
same,Aspartate Transaminase (AST),"[2]; 0.05 mg/kg, 1 days",34 U/L
same,Aspartate Transaminase (AST),"[2]; 0.05 mg/kg, 4 days",42 U/L
same,Aspartate Transaminase (AST),"[2]; 0.05 mg/kg, 7 days",52 U/L
same,Aspartate Transaminase (AST),"[2]; 0.05 mg/kg, 14 days",20 U/L
same,Aspartate Transaminase (AST),"[2]; 0.05 mg/kg, Pre-dose",33 U/L
same,Aspartate Transaminase (AST),"[2]; 0.5 mg/kg, 2 days",794 U/L
same,Aspartate Transaminase (AST),"[2]; 0.5 mg/kg, 4 days",63 U/L
same,Aspartate Transaminase (AST),"[2]; 0.5 mg/kg, 7 days",68 U/L
same,Aspartate Transaminase (AST),"[2]; 0.5 mg/kg, 14 days",67 U/L
same,Aspartate Transaminase (AST),"[2]; 0.5 mg/kg, Pre-dose",47 U/L
same,Alanine Transaminase (ALT),"[2]; 0.005 mg/kg, 2 days",39 U/L
same,Alanine Transaminase (ALT),"[2]; 0.005 mg/kg, 4 days",48 U/L
same,Alanine Transaminase (ALT),"[2]; 0.005 mg/kg, 7 days",29 U/L
same,Alanine Transaminase (ALT),"[2]; 0.005 mg/kg, 14 days",44 U/L
same,Alanine Transaminase (ALT),"[2]; 0.005 mg/kg, Pre-dose",43 U/L
same,Alanine Transaminase (ALT),"[2]; 0.05 mg/kg, 2 days",82 U/L
same,Alanine Transaminase (ALT),"[2]; 0.05 mg/kg, 4 days",88 U/L
same,Alanine Transaminase (ALT),"[2]; 0.05 mg/kg, 7 days",73 U/L
same,Alanine Transaminase (ALT),"[2]; 0.05 mg/kg, 14 days",50 U/L
same,Alanine Transaminase (ALT),"[2]; 0.05 mg/kg, Pre-dose",58 U/L
same,Alanine Transaminase (ALT),"[2]; 0.5 mg/kg, 2 days",63 U/L
same,Alanine Transaminase (ALT),"[2]; 0.5 mg/kg, 4 days",70 U/L
same,Alanine Transaminase (ALT),"[2]; 0.5 mg/kg, 7 days",41 U/L
same,Alanine Transaminase (ALT),"[2]; 0.5 mg/kg, 14 days",43 U/L
same,Alanine Transaminase (ALT),"[2]; 0.5 mg/kg, Pre-dose",29 U/L
same,G-CSF Serum Concentration,"[3]; LNP NPA-030-2, 0.005 mg/kg, 2 hours","3,447.8 pg/ml"
same,G-CSF Serum Concentration,"[3]; LNP NPA-030-2, 0.005 mg/kg, 8 hours","11,454.0 pg/ml"
same,G-CSF Serum Concentration,"[3]; LNP NPA-030-2, 0.005 mg/kg, 24 hours","4,960.2 pg/ml"
same,G-CSF Serum Concentration,"[3]; LNP NPA-030-2, 0.005 mg/kg, 48 hours",686.4 pg/mL
same,G-CSF Serum Concentration,"[3]; LNP NPA-030-2, 0.05 mg/kg, 2 hours","20,951.4 pg/ml"
same,G-CSF Serum Concentration,"[3]; LNP NPA-030-2, 0.05 mg/kg, 8 hours","20,012.8 pg/ml"
same,G-CSF Serum Concentration,"[3]; LNP NPA-030-2, 0.05 mg/kg, 24 hours","19,356.2 pg/ml"
same,G-CSF Serum Concentration,"[3]; LNP NPA-030-2, 0.05 mg/kg, 48 hours","1,963.0 pg/ml"
same,G-CSF Serum Concentration,"[3]; LNP NPA-030-2, 0.05 mg/kg, 72 hours",47.3 pg/mL
same,time out to which protein expression was detectable,[3]; 0.005 mg/kg,≥ 48 h
same,time out to which protein expression was detectable,[3]; 0.05 mg/kg,≥ 72 h
same,increase in neutrophil count above control,neutrophil count,four to five fold increase
